For this assay, the target named is Erwinia amylovora AmyR (Erwinia amylovora strain CFBP1430). Briefly: crystal structure; native AmyR at 8 mg/ml, sitting-drop vapour diffusion, 0.1 M sodium cacodylate pH 6.9, 0.2 M magnesium chloride, 46% (v/v) PEG 200, 293 K; 1.95 Å, space group P 2(1)2(1)2; homodimer in the asymmetric unit.

This is an account of results in paper PMC5398634.

Take “Erwinia amylovora AmyR (natural protein)”: the stoichiometry N was 2.

The stoichiometry N is the number of molecules, sites or subunits per partner or assembly.
